Consider 3 molecules from patent EP4420676A1 (Medizinische Hochschule Hannover, dated 2024).

Assay [1] concerns the target T1, murine DGCR2 expressed on HEK293T cells (mouse, UniProt P98154 25-548).
T1 construct: Transiently expressed on HEK293T cells from a vector with eGFP downstream of a P2A site; also called mouse DGCR2; murine antigen
T1 sequence: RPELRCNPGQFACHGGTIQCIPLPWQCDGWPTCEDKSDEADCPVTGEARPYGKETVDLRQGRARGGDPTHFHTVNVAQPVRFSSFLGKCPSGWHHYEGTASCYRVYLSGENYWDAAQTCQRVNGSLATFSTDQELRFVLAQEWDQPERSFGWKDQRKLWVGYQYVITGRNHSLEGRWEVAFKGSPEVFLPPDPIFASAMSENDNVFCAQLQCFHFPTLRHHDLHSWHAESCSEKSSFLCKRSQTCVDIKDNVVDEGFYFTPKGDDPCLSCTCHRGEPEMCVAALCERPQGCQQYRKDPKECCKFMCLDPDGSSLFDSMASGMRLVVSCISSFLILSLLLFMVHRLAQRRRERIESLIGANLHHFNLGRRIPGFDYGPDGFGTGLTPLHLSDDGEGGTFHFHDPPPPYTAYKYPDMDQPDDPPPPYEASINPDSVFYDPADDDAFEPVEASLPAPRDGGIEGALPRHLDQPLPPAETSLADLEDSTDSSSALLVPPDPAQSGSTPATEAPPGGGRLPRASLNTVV
Briefly: flow cytometry, soluble scFv on transfected HEK293T cells, anti-His PE.

Assay [2] has as its target T2, human DGCR2 expressed on HEK293T cells (human, UniProt P98153 21-550).
T2 construct: Transiently expressed on HEK293T cells from a vector with eGFP downstream of a P2A site; also called human antigen; DiGeorge Syndrom Critical Region 2
T2 sequence: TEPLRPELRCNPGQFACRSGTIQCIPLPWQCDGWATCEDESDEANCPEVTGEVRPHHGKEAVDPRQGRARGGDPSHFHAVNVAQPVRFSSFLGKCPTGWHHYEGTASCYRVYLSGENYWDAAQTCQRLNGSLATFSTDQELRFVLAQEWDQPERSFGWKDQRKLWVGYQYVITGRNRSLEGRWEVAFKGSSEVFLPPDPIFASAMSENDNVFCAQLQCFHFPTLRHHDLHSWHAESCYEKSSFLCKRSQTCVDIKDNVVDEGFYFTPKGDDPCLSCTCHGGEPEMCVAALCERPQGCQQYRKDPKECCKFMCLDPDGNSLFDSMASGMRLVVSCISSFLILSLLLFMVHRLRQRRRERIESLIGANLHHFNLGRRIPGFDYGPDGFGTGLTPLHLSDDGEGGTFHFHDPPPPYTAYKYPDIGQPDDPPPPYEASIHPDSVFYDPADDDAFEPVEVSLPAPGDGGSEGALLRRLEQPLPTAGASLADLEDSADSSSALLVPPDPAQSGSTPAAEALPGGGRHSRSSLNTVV
Briefly: flow cytometry, soluble scFv on transfected HEK293T cells (figure legend).

The target of assay [3] is T1, murine DGCR2 expressed on HEK293T cells. Described as above.

B1: tpi010-A5 scFv (scFv)
scFv: EVQLVESGGGLVQPGGSLRLSCAASGFTVSSNYMSWVRQAPGKGLEWVSVIYSGGSTYYADSVKGRFTISRDNAKNSLYLQMNSLRAEDTAVYYCARGWTTFDYWGQGTLVTVSSGSASAPKLEEGEFSEARVQAVLTQPPSLSVSPRQTVTITCSGDQLGDRYVSWYQQKPGQSPMLVIYQDDRRPSGVPERFSGSNSGNTATLTIGGTQAMDQADYYCQTWDNSPVVFGGGTKLTVLGQPKAAPSVTLFPPSSAAAGSEQKLISEEDLSHHHHHH
notes: Soluble scFv produced in E. coli
For the molecule B1, the binding result in assay [1] and in assay [2] was “binds” in each case.

B2: UK018-G3 scFv (scFv)
scFv: QVQLVQSGGGVVQPGRSLRLSCAASGFTFSSYGMHWVRQAPGKGLEWVAVISYDGSNKYYADSVKGRFTISRDNSKNTLYLQMNSLRAEDTAVYYCAKDRGAVAGTDWYFDLWGRGTLVTVSSGSASAPKLEEGEFSEARVSSELTQDPAVSVALGQTVRITCQGDSLRSYYASWYQQKPGQAPVLVIYGKNNRPSGIPDRFSGSSSGNTASLTITGAQAEDEADYYCNSRDSSGNHVVFGGGTKLTVLGQPKAAPSVTLFPPSSAAAGSEQKLISEEDLSHHHHHH
notes: as for B1
On to B2, for which the binding result in assay [2] and in assay [3] was “binds” throughout.

B3: UK018-G9 scFv (scFv)
scFv: QVQLVQSGGGLVQPGGSLRLSCAASGFTFSSYSMSWVRQAPGKGLEWVLGITRGGNTFYADSVTGRFTISRDISKNTVFLQMDSLRVEDTAIYYCAKDWTMSGINVFDTWGQGTLVTVSSGSASAPKLEEGEFSEARVQAVLTQPPSVSGSPGQSVTISCTGTSSDVGAYNRVSWYQQPPGTAPKLMIYEVNNRPSGVPDRFSGSKSGNTASLTISGLQAEDEADYYCSSSTTSSTYVFGTGTKVTVLGQPKANPTVTLFPPSSAAAGSEQKLISEEDLSHHHHHH
notes: as for B1
Take B3: the binding result in assay [2] and in assay [3] was “binds” each time.
